From US20220363623A1, “IMAGING AND THERAPEUTIC COMPOSITIONS” (priority 2019, published 2022)
*1 amine or outer side, *2 acyl side, *3 side chain or, on linkers, in order; H or OH if unused. Where a SMILES comes first, the peptide text is derived from it. Bridges are numbered along the chain shown (N, C = ends). Side-chain parts run from the residue outwards. [ ]: non-standard residue; d: D form. The star is where a group is joined. X1 = O=C([C@@H](Cc1ccccc1)N(c1c(NCCCCCN(O)[*:3])c(=O)c1=O)[*:1])[*:2]; X2 = CC(=O)N(O)CCCCCNC(=O)CCC(=O)N(O)CCCCCN*; Thr(ol) = C[C@@H](O)[C@H](N)CO; Suc = O=C(CCC(=O)[*:2])[*:1]

Legend:
[1] = system: AR42J (rat pancreatic cancer cell line) tumour; assay: in vivo; design: species or system mice; details: female, Balb/c nude, mouse, iv
Description: (§1) PET-CT imaging and Biodistribution of Octreotate/tide Tracers. Female Balb/c nude mice (age 9 weeks) were inoculated subcutaneously on the right flank with 3×10^6 AR42J cells in PBS:Matrigel (1:1). Mice were weighed and tumours measured twice weekly using electronic callipers. Tumour volume (mm^3) was calculated as length^2×width/2. 12 mice were assigned for imaging and biodistribution studies (tumour volumes: 170-550 mm^3). DFOSqTIDE (2.5 MBq) and DFOSqTATE (2.2 MBq) were administered intravenously by tail vein injection to mice on. At 1, 2, 4 and 18 hr post injection three mice were anaesthetised using isoflurane and placed on the imaging bed of a G8 PET/CT scanner (Perkin Elmer). A CT scan was performed which was immediately followed by a 10 min static PET scan. PET images were reconstructed using the maximal likelihood and expectation maximization (ML-EM) algorithm. PET images were analysed using VivoQuant (Invicro) and Tumour SUVmax, Tumour SUVmax/background average (TBR) and Tumour SUVmax/liver average (TLR) determined. After imaging at 18 hr mice were euthanised and selected tissues were excised, weighed and counted using a Capintec (Captus 4000e) gamma counter. A separate cohort of 3 mice was harvested at 1 hr post injection for biodistribution analysis. The data was analysed using GraphPad Prism 7 and differences between tracers analysed using a t-test. The high tumor uptake was confirmed by an ex vivo biodistribution study in the same mouse model where mice were injected with either ^68GaDFOSq-TIDE and ^68GaDFOSq-TATE (2-3 MBq, 1 μg, 0.5 nmol) and then euthanised at either 1 h or 2 h after administration. The amount of injected activity per gram of tissue (% IA/g) in the tumor and major organs was quantified (FIG. 16).

[2] = system: AR42J (rat pancreatic cancer cell line) tumour; assay: in vivo; design: species or system mice; details: mouse
Description: as §1, with “t-test.” for “t-test. The high tumor uptake was confirmed by an ex vivo biodistribution study in the same mouse model where mice were injected with either ^68GaDFOSq-TIDE and ^68GaDFOSq-TATE (2-3 MBq, 1 μg, 0.5 nmol) and then euthanised at either 1 h or 2 h after administration. The amount of injected activity per gram of tissue (% IA/g) in the tumor and major organs was quantified (FIG. 16).”
AR42J (rat pancreatic cancer cell line) tumour bearing Balb/c nude mice as described above were injected intravenously via tail vein injection with ^89ZrDFOSqTATE or ^89ZrDFOSqTIDE (2-3 MBq). At 1, 2, 4 and 18 h post-injection the mice were anaesthetised with isoflurane and imaged over 10 min. At 1 hr after injection of DFOSqTIDE and DFOSqTATE, uptake into kidney, tumour and liver was observed. Representative PET images of mice injected with DFOSqTIDE and DFOSqTATE are shown in FIG. 12 and quantitation of the tumour SUVmax for each radiotracer is summarised in FIG. 13a.
^68GaDFOSq-TIDE and ^68GaDFOSq-TATE tracers were injected (2-3 MBq, 1 μg, 0.5 nmol) intravenously via tail vein to AR42J (rat pancreatic cancer cell line) tumour bearing Balb/c nude mice. PET images were acquired at 1 and 2 h post-injection (FIGS. 15a and b). […] Quantification of the uptake in the images using Standard Uptake Value (SUVmax=radioactivity in a tissue/injected activity/BW) confirms the higher uptake for ^68GaDFOSq-TATE (1 h; SUVmax 1.8±0.2, compared to 1.21±0.20, FIG. 15c). The higher tumor uptake of ^68GaDFOSqTATE was also associated with a higher degree of tumor retention at 2 h post injection with only a 5% reduction in SUVmax whereas the tumor SUVmax for ^68GaDFOSqTIDE reduced by 30% ^68GaDFOSqTATE at 2 h post injection. Both tracers clear rapidly from the blood and there is low uptake in bone consistent with stable gallium-68 complexes as well as low uptake in muscle. Both tracers have significant uptake in the kidneys and bladder.

[3] = system: LNCaP (human PSMA expressing prostate cancer cell line) tumour; design: species or system mice; details: mouse, in vivo
Description: (§2) PET-CT imaging and Biodistribution. Male Balb/c nude mice (age 8.5 weeks) or Male NSG mice (age 12 weeks) were inoculated subcutaneously on the right flank with 6×10^6 LNCap cells in PBS:Matrigel (1:1). Mice were weighed and tumours measured twice weekly using electronic callipers. Tumour volume (mm^3) was calculated as length×width×height×π/6. Mice were assigned for imaging and biodistribution studies (tumour volumes: 85-450 mm3). ^89Zr-DFOSq-PSMA tracers were then administered intravenously by tail vein injection to 6 mice. At 1, 2, 4 and 18 hr post injection three mice were anaesthetised using isoflurane and placed on the imaging bed of a G8 PET/CT scanner (Perkin Elmer). A CT scan was performed and followed immediately by a 10 min static PET scan. PET images were reconstructed using the maximal likelihood and expectation maximization (ML-EM) algorithm. PET Images were analysed using VivoQuant (Invicro) and Tumour SUVmax or Tumour SUVmax/background average (TBR) determined. After imaging at 18 hr mice were euthanised and selected tissues were excised, weighed and counted using a Capintec (Captus 4000e) gamma counter. A separate cohort of 3 mice was harvested at 1 hr post injection for biodistribution analysis as above. The data was analysed using GraphPad Prism 7 and differences between tracers analysed using a t-test.
(§3) ^89Zr Labelled tracers: The ^89Zr radiolabelled PSMA tracers were injected intravenously via tail vein to LNCaP (human PSMA expressing prostate cancer cell line) tumour bearing mice. At 1, 2, 4 and 18 h post-injection the mice were anaesthetised with isoflurane and imaged over 10 min. The representative PET images of mice injected with ^89Zr radiolabelled PSMA tracers at 1 and 18 hr are shown in FIG. 1 and quantitation of the Tumour SUVmax for each tracer is shown in FIG. 2a. […] There was a trend for higher tumour SUVmax for (4) tracer compared to all other tracers at all time points. […] A comparison of tumour uptake values is shown in FIG. 2b and the tissue biodistribution data for the tracers at 1 and 18 hr is summarised in FIG. 3.
(§4) ^68Ga Labelled tracers: Representative PET images of mice injected with ^68Ga(1) and ^68Ga(4) are shown in FIG. 4 and quantitation of the tumour SUVmax is shown in FIG. 5a. […] Tumour uptake of ^68Ga(4) was 1.6 and 1.8 fold higher than ^68Ga(1) at 1 and 2 hr p.i., respectively. This is consistent with the biodistribution results where tumour % ID/g for ^68Ga(4) was higher than ^68Ga(1) at 1 hr (10.8±1.3 vs 6.5±0.4) and at 2.5 hr (8.6±1.0 vs 4.1±0.5) p.i. […] (6.5±0.4% ID/g at 1 hr vs 4.1±0.5% ID/g at 2.5 hr). In contrast, there was no significant change in ^68Ga(4) tumour retention at 1 and 2.5 p.i. (10.8±1.3% ID/g vs […], FIG. 5b).

in vivo = assay: in vivo; design: species or system mice; details: male, mouse, total radioactivity
Description: as §2, §3, §4

[4] = system: LNCaP (human PSMA expressing prostate cancer cell line) tumour; assay: in vivo; design: species or system mice; details: mouse
Description: as §2, §3, §4

LNCap cells = assay: Cell binding and internalization studies in LNCap cells; format: cell-based, human; details: 89Zr tracers, 60 min, 37° C.
Description: Cell binding and internalization studies. LNCap cells (150,000/well) were plated in RPMI 1640 medium containing 10% FBS into wells of a 24 well plate pre-coated with 0.05% poly-L-lysine and incubated overnight at 37° C. and 5% CO2. The following day cells were washed twice with PBS and incubated for 1 hour at 37° C. in 1 mL per well internalisation buffer (MEM, 1% FBS). The buffer was then replaced with 1 ml per well of a warmed solution containing 0.5 μCi ^89Zr-DFOsq-PSMA tracers in internalisation buffer. Cells were incubated in triplicate for 5, 15, 30 or 60 min at 37° C. and 5% CO2. At each time point, cells were washed twice with ice-cold PBS and the washes collected for counting (unbound fraction). Cells were then incubated twice for 10 min in saline containing 10 μM PMPA and each wash collected for counting (surface bound fraction). The cells were then solubilised in 1 M NaOH (internalised fraction). Total protein content was determined in this fraction using a BCA protein assay kit (Pierce). A Perkin Elmer 2480 Wizard automatic gamma counter was then used to measure Zr-89 radioactivity in unbound, surface bound and internalised fractions. Surface bound and internalised fractions were expressed as percentage of total added radioactivity per mg of protein. Non-specific membrane binding and internalisation was determined by incubating cells with the ^89Zr-DFOSq-PSMA tracers in the presence of excess (10 μM) PMPA. ^89Zr-DFOSq-PSMA tracers uptake at 60 min was also determined in DU145 cells (seeded at 125,000 cells/well), a PSMA negative cell line. The raw data was analysed using GraphPad Prism 7.

## CC(=O)N(O)CCCCCNC(=O)CCC(=O)N(O)CCCCCNC(=O)CCC(=O)N(O)CCCCCNc1c(N[C@H](Cc2ccccc2)C(=O)N[C@H]2CSSC[C@@H](C(=O)N[C@H](C(=O)O)[C@@H](C)O)NC(=O)[C@H]([C@@H](C)O)NC(=O)[C@H](CCCCN)NC(=O)[C@@H](Cc3c[nH]c4ccccc34)NC(=O)[C@H](Cc3ccc(O)cc3)NC2=O)c(=O)c1=O (89Zr complex, metal not drawn) [^89ZrDFOSqTATE] (H-[X1]([Suc-X2])CY[dW]KTCT-OH; disulfide 2-7)
[1]
  Tumour Uptake % ID/g 1 h pi: 10.4 ± 0.5 % ID/g
  Tumour Uptake % ID/g 18 h pi: 4.9 ± 0.8 % ID/g
[2]
  Tumour SUVmax 1 h pi: 3.1 ± 0.2
  Tumour SUVmax 18 h pi: 1.3 ± 0.15
  Tumour SUVmax Clearance %: 58%

## CC(=O)N(O)CCCCCNC(=O)CCC(=O)N(O)CCCCCNC(=O)CCC(=O)N(O)CCCCCNc1c(N[C@H](Cc2ccccc2)C(=O)N[C@H]2CSSC[C@@H](C(=O)N[C@H](CO)[C@@H](C)O)NC(=O)[C@H]([C@@H](C)O)NC(=O)[C@H](CCCCN)NC(=O)[C@@H](Cc3c[nH]c4ccccc34)NC(=O)[C@H](Cc3ccc(O)cc3)NC2=O)c(=O)c1=O (89Zr complex, metal not drawn) [^89ZrDFOSqTIDE] (H-[X1]([Suc-X2])CY[dW]KTC[Thr(ol)]; disulfide 2-7)
[1]
  Tumour Uptake % ID/g 1 h pi: 3.4 ± 0.4 % ID/g
  Tumour Uptake % ID/g 18 h pi: 1.7 ± 0.1 % ID/g
[2]
  Tumour SUVmax 1 h pi: 1.1 ± 0.07
  Tumour SUVmax 18 h pi: 0.5 ± 0.01
  Tumour SUVmax Clearance %: 55%

## CC(=O)N(O)CCCCCNC(=O)CCC(=O)N(O)CCCCCNC(=O)CCC(=O)N(O)CCCCCNc1c(NCCN(CCNC(=O)CCCC(=O)NCc2ccc(C(=O)NCCCCC(NC(=O)NC(CCC(=O)O)C(=O)O)C(=O)O)cc2)CCNC(=O)CCCC(=O)NCc2ccc(C(=O)NCCCCC(NC(=O)NC(CCC(=O)O)C(=O)O)C(=O)O)cc2)c(=O)c1=O (single isomer, unassigned) [^68Ga(4), metal not drawn]
[3]
  Gut uptake in PET images: no gut uptake
  Kidney uptake in PET images: high kidney uptake
  LNCap tumour uptake in PET images: moderate tumour uptake
  Tumour SUVmax 1 h pi: 1.6 ± 0.10
  Tumour SUVmax 2 h pi: 1.5 ± 0.09
In vivo; Tumour Uptake % ID/g 1 h pi
  tissue uptake at 1 h: 10.8 ± 1.26 %ID/g
In vivo; Tumour Uptake % ID/g 2.5 h pi
  tissue uptake at 2.5 h: 8.6 ± 0.93 %ID/g
[4]
  Tumour Uptake % ID/g 1 h pi: 10.8±1.3 % ID/g

## CC(=O)N(O)CCCCCNC(=O)CCC(=O)N(O)CCCCCNC(=O)CCC(=O)N(O)CCCCCNc1c(NCCN(CCNC(=O)CCCC(=O)NCCCCC(NC(=O)NC(CCC(=O)O)C(=O)O)C(=O)O)CCNC(=O)CCCC(=O)NCCCCC(NC(=O)NC(CCC(=O)O)C(=O)O)C(=O)O)c(=O)c1=O (single isomer, unassigned) [^89Zr(3), metal not drawn]
[3]
  Tumour SUVmax 1 h pi: 1.7 ± 0.12
  Tumour SUVmax 18 h pi: 0.6 ± 0.06
  Tumour SUVmax Clearance %: 65%
LNCap cells
  Cell Uptake % AR/mg protein (60 min) Surface bound: 2.2 ± 0.14 % AR/mg protein
  Cell Uptake % AR/mg protein (60 min) internalized: 3.8 ± 0.39 % AR/mg protein
[4]; male, iv, 1 h
  Tumour Uptake % ID/g 1 h pi: 5.9 % ID/g
[4]; male, iv, 18 h
  Tumour Uptake % ID/g 18 h pi: 2.5 ± 0.22 % ID/g
